Experimental data published in article PMC9030869, “Interplay between Alba and Cren7 Regulates Chromatin Compaction in Sulfolobus solfataricus” (Biomolecules, 2022).

Molecular target: T1, Sulfolobus solfataricus Alba1 (S. solfataricus, UniProt P60849 1-97)
T1 construct: Alba1 of Sulfolobus solfataricus; construct obtained from Dr. Malcolm White (University of St. Andrews); It was obtained from Dr. Malcolm White; source: E. coli BL21(DE3), purified (HiTrap SPHP cation exchange, size exclusion chromatography)
T1 sequence (looked up): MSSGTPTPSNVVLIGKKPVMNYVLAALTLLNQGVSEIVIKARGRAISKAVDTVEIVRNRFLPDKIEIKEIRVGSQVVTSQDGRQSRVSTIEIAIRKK
Assay: SEC; equimolar amounts (~100 µM) of Alba1 and Alba2 mixed, then run on a TSKgel G3000SWxl column with 150 mM NaCl in Buffer A as mobile phase
Conditions: both partners purified

binding result: binds
B1: Sulfolobus solfataricus Alba2 (natural protein, S. solfataricus, UniProt Q97ZF4 1-89, looked up)
chain: MTEKLNEIVVRKTKNVEDHVLDVIVLFNQGIDEVILKGTGREISKAVDVYNSLKDRLGDGVQLVNVQTGSEVRDRRRISYILLRLKRVY
notes: Alba2 of Sulfolobus solfataricus, homologue of Alba1; construct obtained from Dr. Malcolm White (University of St. Andrews); It was obtained from Dr. Malcolm White; source: E. coli BL21(DE3), purified (HiTrap SPHP cation exchange, size exclusion chromatography)
